Assay results from a protein production outcome set (Wang et al. 2014).

Assay: label from the status in PepcDB records
For “MITLAVRLKNLAFLLIAVLALSFLGIRYADLGRYVGVADYYTVDVHLPRTGGLFTHSDVTYRGVSVGRVGPIDLTAEGVVAELRIKKSAPRIPADTKAVVAGLSAVGEQYIDLRPESDGSPYLADGTRIEQADTEVPAPVTDVLTSVDDLASSVPLEDLRTVVDEFGKAFDGHGDDLQVLLDSGSDFVEAADRALPSTTLLINDGETVLRTQAQEARAIRDFAVGAKDLAAALKGSDADLRRLLAVTPEAATQVSGLLRDLDPSLGVVLANLLTTSEVAVTRQRGIEELLVKYPAAVSAGATAVDGGKLDLGLAVTFFSPLPCTDGYGGTRYRNGLDLGTAPALNTDAACTAPASGGKNVRGSANAPKSGAVPDPATPGSLPSGGGRTTPAGGGSPARDGSTALPGALALPGQSGEAPAGLTGLLAPAAGGARLEHHHHHH”, the protein production was “failed”.
In the case of “MITLTKEGGPADLDGVTHLSIGVSWDPTAGSSGGVLGKLRRKTGTDLDLIAVAMQGGDPVRLAGLDSLDPMGNGSLLHSGDNQTGHGDGDDETVTVEFARLPSAITSIVFVAAAYKKGSSFQKARNISFKVYDATGGSSEQVADIWPSLLSQDNGCAVAKAVRVGGTWKLEVVNETGKIKQGDEHALMRFAVSK”, the protein production is reported as “failed”.
With “MITMKISSRFSIAVHILSILKNNPSSLCTSDYMAESVNTNPVVIRKIMSYLKQAGFVYVNRGPGGAGLLKDLHEITLLDVYHAVNVVEEDKLFHIHEQPNPDCPIGANIQAVLEIILIQAQSAMEEVLRNITMGQLFETLQEKMNA” the protein production was “not failed”.
In the case of “MITRLTDIELEQIRGVIFDLDGTLAHSNPDFKGLRAALGIGSGTDILEHIHSLETTVAKMQALEIVHDYELESSRQASWIEGAQALIAFLKTRQLPLAILTRNMPEAAKITIEKLGIDIPLVLTRYDAEPKPHPQGIYLICEQWQLNPADILYVGDYLFDLQTAQNAGSRCALYCPEDVPDYAQAADLLVSCYHSLIQAWPK”, the protein production is reported as “failed”.
In the case of “MITSRSTGELVIPVSRRINNKDGNFGGVFLVTLRVQYFSRFYADFRMDEQGVIVLADQNGTIMVRHPFDTNMIGRNIAKGDIFSKYLPHASRGVHMVVAITDKVERMYGYERLNRYPLVVLAGKSKRAILGSWYESLYGSLIMLCLILPIPVLFATLISRQIKTTLKVEDELRLAYAAVEAIAMQDSLTGLANRRQLDVVLPAEIKRAKRTSQPLGVIMVDIDYFKRYNDYYGHPAGDLCIKAIANVLKNHTRRAGNLAARYGGEELTVLLPSCDQAAVLAAAERIVESIRGLQIAHDDSPEGYLTVSVGAYSYSAFNKEVDASGLLKCADDALYAAKQAGRNRARLSA”, the protein production is reported as “failed”.
In the case of “MIVDFETHFITEACIDYLTQRQEVPKLVPDLNGAYTMCFTPDVSLFHTSALMEELLSLNEQRLAIMDQAGVTIQVLSLTTINGIDSCPGDENKSTALAREVNDQLYSAIQRHPERFKGFASISPYDVKEGVKELERAISQLGFVGWLTHSNFGQDNYLDDKTYWPLLEAAEGLNIPIYLHPNVPIMREFGKYGFALGGSALGFEFDTALCLMRMILGGVFDAFPKLKIMLGHLGETMPFLMERLDHLYRIPDLKAYRPSIQRIPSEVLRQNVYITTSGRFFVPALRYVLEVMGEDRVLFASDYPMESLLDATRFIQDSDLSNQTKQKIFSINAKNLNLILEHHHHHH”, the protein production is reported as “failed”.
With “MIVFDGHNDVLTELVRAGGRAAAGGFLSGLPGQLDLPRARAGGFGGGFFALWARSEGATDFSTLGPEYDLPLPEPVPEAQAWEMIRAQADTLVALEEAGAVRICTSTAQIARARDEGLLGAILHLEGAEGIGPDFYELEELYALGLRSLGPVWSRPNAFGHGVPFRYPSGPDIGPGLTERGRALIARCEELRILIDLSHLNLAGFREVAALSKRPLVATHSNAHARVPHARNLTDEQLRIMAESGGLAGVNFESTFLRPDGRPDDDIPAAWLLAQFDHLLDRLGEEGVAIGSDYDGCTPPAWLNSVDKLPALIAAMERHGYPAARIERICWGNWMRVLAETWGESA” the protein production was “failed”.
With “MIVLALLGVLLLSVYAYKTKKLTLSGAISAFVVGALISFGLGFKGLLLLAIFFFTSGFWSRFYQERKENEITAKGSTRDGWQVLANGGFAAICALLFSILQDPIYICGFVASLAAANADTWASEVGPLAKRRPIHIIKWKPVDAGTSGAVSAIGTAAAFAGSFIIVVVSIFFWWSSSFASHHLLFSLTLAGFLGNLFDTLVGATGQVLYQCPRCGLETERKIHCNGPTEKKYGLRFLNNDTVNAICTGTGALFGIVAGLILL” the protein production was “failed”.
For “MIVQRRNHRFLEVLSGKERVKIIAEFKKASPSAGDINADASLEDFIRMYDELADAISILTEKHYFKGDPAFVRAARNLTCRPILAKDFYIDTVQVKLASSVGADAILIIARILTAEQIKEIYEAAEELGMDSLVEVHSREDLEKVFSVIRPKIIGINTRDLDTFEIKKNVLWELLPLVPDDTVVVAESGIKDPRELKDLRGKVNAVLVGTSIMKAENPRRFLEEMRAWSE”, the protein production was “not failed”.
In the case of “MIVSVVIPVAKEGNTLYERIHLINKHFNSLSSSHKFSYEIILVSDIFHKPTLKAMIRLAKENVAKCLLLTQRIGKGGSIKNAIPFSRGDYIVILDADIPVRPIFINQAVVLAMNLGIDLIIANRVYRTHSLLRRVLSVAYNSLVNLLFKTGLRDHQAGLKILSRRAAKIILMKRTRTDGLAYDTEIVVWAKRHGLRYRAVNVVWREQREGSTIPPMRALLTMLADLIMLRLLTLAGKYVALQKLVIGRVIDLGNIHTVGQEFMTVIRASRPKNHLLNVLRKLYIAVALRR”, the protein production is reported as “failed”.
For “MIWIILASFLMYSIFVMWFSWYKTRGTDLSSSDGYFLGGRSLTGIVIASSLILTNLSTEQVVGLNGQAFGESMVVMAWEVTAPIALILMAFVFLPRYLKLGITTIPDFLEQRFDLRTRQIVSVLFLLGYATVFLPTVLYSGALVIDSIFSLSSVMDISPFMIVLCISIAIGIISCGYVILGGLKACAMSDTINGIGLIIGGLLIPILALFVLGRGDFASGVGELVSANPTKLNAIGNDQASVPWAVLLTGLLFNNLFYWCTNQSIIQRTLAAKNLAEGQKGVLFAGMFKIFGAAFLVLPGIIAYLLYGDVLANADMAYPSLVIDVMPVALSGFLAAVLFGAILSSFNNVLNSSITLFTLDIYKPIFKPNAKEPELVKAGRIFAACLAITAVVIAPFILYAPQGLYYFLQEMNGFYSLPIIAMVIVGFFSKYVPASAPKVLVAVHVVLYAGSKVVLGEVNFLYVLSVLFPINVLVMLIVGRLKPRETSFVLPTANKVDLTPWKYAKPFSAFILLTMLGVYTFFSPLGVAESSGGYTIYQFIFFIVTLAFIGGVVLFWKKTDRIRGGRVPLNQMYPFNQKSG”, the protein production was “failed”.
With “MIWMAEIEGIYTIWLREMKRFFRYRSRIVTSIVTPLLWLIIFGTGLGAAVRFGGVPGGYKAFIYPGIIGQTVLFTSIFSGVSVIIDRQYGFLKEILVAPISRESMVVGKALGISTASMIQAAILLALSFIVGITMSPQCFIVSMVIALIISMGLGGLGLVIAAFTDSMEGFNLIMSFIVLPIFLLSGALFPITGLPAWLQGAVYINPLTYAVDALRFTILRRSVLPLEVNLLVITIFAVIAVLIAAFLFNRKEQNLM” the protein production was “failed”.
In the case of “MIYFIRKKKWLKQLEKGEAMKYAILIGDGMADYPIEKLGNRTILQAARTPAMDSIAARGRAGLAKTVPDSFPPGSDVANMSILGYDPATYYSGRAPLEAASMGVALAADDVAFRCNLITTEHGMIKDYSAGHISSDEAEILIDTLDYELSTENIRFYPGISYRHLIVAGNNLGAETECTPPHDITGEKIDKYLPRGKDGEFFSELIEASKVVLELHPVNLKRVEEGKNPANSIWVWGQGYAPKFTAFMKLYGKKGAVISAVDLLKGIGIYAGLDVIEVHGATGYLDTNYEGKVRAAIEALKTRDLVFVHVEAPDEAGHEGSIEKKLKAVEDFDSRIVAPILEYAENSDEPFTILVLPDHPTPISVKTHTRDPIPFAIYRTDKPETDNVEAFDEESVKNGSMGLVKASDLIGILIKS”, the protein production is reported as “failed”.
For “MIYLRKANERGHANHGWLDSWHTFSFANYYDPNFMGFSALRVINDDVIEAGQGFGTHPHKDMEILTYVLEGTVEHQDSMGNKEQVPAGEFQIMSAGTGIRHSEYNPSSTERLHLYQIWIMPEENGITPRYEQRRFDAVQGKQLVLSPDARDGSLKVHQDMELYRWALLKDEQSVHQIAAERRVWIQVVKGNVTINGVKASTSDGLAIWDEQAISIHADSDSEVLLFDLPPV”, the protein production was “not failed”.
